These results are taken from patent publication US6376217.

In the experiment the target is T1, human CD5 cell differentiation marker (human, UniProt P06127 25-495).
T1 sequence: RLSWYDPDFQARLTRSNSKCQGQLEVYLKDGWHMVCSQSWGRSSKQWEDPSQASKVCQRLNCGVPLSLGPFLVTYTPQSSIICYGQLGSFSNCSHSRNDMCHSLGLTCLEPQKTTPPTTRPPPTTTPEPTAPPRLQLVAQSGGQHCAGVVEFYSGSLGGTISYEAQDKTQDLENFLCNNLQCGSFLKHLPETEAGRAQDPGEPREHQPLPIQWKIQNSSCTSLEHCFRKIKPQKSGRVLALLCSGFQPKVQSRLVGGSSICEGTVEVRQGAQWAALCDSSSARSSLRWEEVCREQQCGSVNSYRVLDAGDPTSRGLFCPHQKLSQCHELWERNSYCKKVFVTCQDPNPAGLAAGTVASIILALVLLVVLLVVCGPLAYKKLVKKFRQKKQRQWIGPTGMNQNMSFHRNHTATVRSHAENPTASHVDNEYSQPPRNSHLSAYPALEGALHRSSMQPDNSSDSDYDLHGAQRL
The experiment is described as follows: cell-based or functional assay.

B1: he3Fab-rGelA50(C44) (other)
heavy: EIQLVQSGGGLVKPGGSVRISCAASGYTFTNYGMNWVRQAPGKGLEWMGWINTHTGEPTYADSFKGRFTFSLDDSKNTAYLQINSLRAEDTAVYFCTRRGYDWYFDVWGQGTTVTVSS
light: DIQMTQSPSSLSASVGDRVTITCRASQDINSYLSWFQQKPGKAPKTLIYRANRLESGVPSRFSGSGSGTDYTLTISSLQYEDFGIYYCQQYDESPWTFGGGTKLEIK
chain: GLDTVSFSTKGATYITYVNFLNELRVKLKPEGNSHGIPLLRKKCDDPGKAFVLVALSNDNGQLAEIAIDVTSVYVVGYQVRNRSYFFKDAPDAAYEGLFKNTIKTRLHFGGSYPSLEGEKAYRETTDLGIEPLRIGIKKLDENAIDNYKPTEIASSLLVVIQMVSEAARFTFIENQIRNNFQQRIRPANNTISLENKWGKLSFQIRTSGANGMFSEAVELERANGKKYYVTAVDQVKPKIALLKFVDKDPK
In the case of B1, the “IC50 (pMT), whole cell cytotoxicity, CEM Cells” value came to 173 pMT.
